In paper PMC6327041, “Histone H3 binding to the PHD1 domain of histone demethylase KDM5A enables active site remodeling” (Nature Communications, 2019):
Where no end group is shown, it is not given here. 5‑FAM = 5-carboxyfluorescein; Me3 = trimethyl-lysine

T1: KDM5A_(1-797) (human, UniProt P29375 1-797)
T1 construct: histone demethylase KDM5A, human, residues 1-797; Cloned into pFASTBAC HTA; the His tag was removed with TEV protease; also called WT KDM5A_(1-797); KMD5A; source: Sf21 (baculovirus), purified (cobalt resin, TEV cleavage, S200 SEC); not shown: His tag, N-terminal, cleaved
T1 sequence (looked up): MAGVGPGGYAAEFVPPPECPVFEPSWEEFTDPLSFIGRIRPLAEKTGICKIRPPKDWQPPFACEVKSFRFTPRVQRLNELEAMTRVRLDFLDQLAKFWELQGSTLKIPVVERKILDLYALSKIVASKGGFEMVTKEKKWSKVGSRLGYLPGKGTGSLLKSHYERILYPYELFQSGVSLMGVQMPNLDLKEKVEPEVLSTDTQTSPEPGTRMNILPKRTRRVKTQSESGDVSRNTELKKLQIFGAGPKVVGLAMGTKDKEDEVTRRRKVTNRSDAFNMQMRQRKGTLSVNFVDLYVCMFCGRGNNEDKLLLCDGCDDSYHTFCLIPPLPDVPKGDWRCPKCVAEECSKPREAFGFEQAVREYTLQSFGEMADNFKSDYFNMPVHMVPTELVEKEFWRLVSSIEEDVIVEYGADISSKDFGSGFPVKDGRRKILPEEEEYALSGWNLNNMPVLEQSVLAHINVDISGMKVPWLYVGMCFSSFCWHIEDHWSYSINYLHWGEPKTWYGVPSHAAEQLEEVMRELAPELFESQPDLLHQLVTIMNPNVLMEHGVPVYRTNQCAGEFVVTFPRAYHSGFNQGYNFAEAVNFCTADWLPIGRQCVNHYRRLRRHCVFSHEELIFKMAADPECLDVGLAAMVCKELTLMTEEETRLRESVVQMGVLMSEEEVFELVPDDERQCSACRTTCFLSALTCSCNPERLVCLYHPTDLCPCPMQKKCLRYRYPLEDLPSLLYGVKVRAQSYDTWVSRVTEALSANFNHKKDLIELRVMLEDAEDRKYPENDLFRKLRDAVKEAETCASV

T2: GST-PHD1 (V291-K347) of KDM5A (human, UniProt P29375 291-347)
T2 construct: PHD1 domain of histone demethylase KDM5A, human, residues V291-K347; Cloned into pET41a; the vector may add further tags (surmise); also called V291-K347 PHD1; PHD1_(KDM5A); source: E. coli BL21(DE3), purified (Glutathione Sepharose 4B, Superdex 75 SEC); not shown: GST, N-terminal, kept
T2 sequence (looked up): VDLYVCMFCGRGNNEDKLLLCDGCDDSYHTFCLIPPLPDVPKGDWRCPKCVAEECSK

T3: GST-PHD1 (S287-K347) of KDM5A (human, UniProt P29375 287-347)
T3 construct: PHD1 domain of histone demethylase KDM5A, human, residues S287-K347; Cloned into pET41a; the vector may add further tags (surmise); also called S287-K347 PHD1; GST-PHD1 (Ser287-Lys347); source: E. coli BL21(DE3), purified (Glutathione Sepharose 4B, Superdex 75 SEC); not shown: GST, N-terminal, kept
T3 sequence (looked up): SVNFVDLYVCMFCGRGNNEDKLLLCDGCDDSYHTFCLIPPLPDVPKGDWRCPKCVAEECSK

T4: GST-PHD1 (S287-K347) D292A of KDM5A (human, UniProt P29375 287-347, D292A)
T4 construct: PHD1 domain of histone demethylase KDM5A, human, residues S287-K347 with D292A; Cloned into pET41a; the vector may add further tags (surmise); also called S287-K347 PHD1 D292A; PHD1 D292A; source: E. coli BL21(DE3), purified (Glutathione Sepharose 4B, Superdex 75 SEC); not shown: GST, N-terminal, kept
T4 sequence (looked up): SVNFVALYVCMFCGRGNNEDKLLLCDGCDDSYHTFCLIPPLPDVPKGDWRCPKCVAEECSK


Experiments:
Settings in all cases: both partners purified
KDM5A_(1-797) = target: T1, KDM5A_(1-797); assay: HDX-MS; KDM5A_(1-797) with 50 µM FeSO4 and 100 µM N-OG, with 100 µM H3 10mer effector peptide against apo; 40 mM HEPES, 50 mM KCl, pH 7.9, 4 °C
[1] = target: T2, GST-PHD1 (V291-K347) of KDM5A; assay: fluorescence polarisation; competition-based FP: 2 µM GST-PHD1 with 10 nM C-terminal fluorescently labeled H3 peptide and different concentrations of unlabeled competitor peptide
[2] = target: T3, GST-PHD1 (S287-K347) of KDM5A; assay: as above
[3] = target: T4, GST-PHD1 (S287-K347) D292A of KDM5A; assay: as above
[4] = target: T2, GST-PHD1 (V291-K347) of KDM5A; assay: fluorescence polarisation; direct FP: 10 nM C-terminal fluorescently labeled H3 peptide with varying concentrations of GST-PHD1
[5] = target: T3, GST-PHD1 (S287-K347) of KDM5A; assay: as above
[6] = target: T4, GST-PHD1 (S287-K347) D292A of KDM5A; assay: as above

| binding result (KDM5A_(1-797)) | Kd [1] | Kd [2] | Kd [3] | Kd [4] | Kd [5] | Kd [6] | Binder |
| --- | --- | --- | --- | --- | --- | --- | --- |
| binds | – | – | – | – | – | – | ARTKQTARKS (peptide, UniProt P68431 2-11, looked up, histone H3 N-terminal tail, 10mer Ala1-Ser10, unmodified, unlabelled; also called H3 10mer peptide; PHD1-specific H3 10mer peptide) [unmodified H3 10mer effector peptide (H3 Ala1-Ser10)] |
| – | – | – | – | 1.89 ± 0.16 µM | 0.68 ± 0.04 µM | 5.2 ± 0.26 µM | ARTKQTARKS-{5‑FAM} (peptide, UniProt P68431 2-11, looked up, histone H3 N-terminal tail, 10mer Ala1-Ser10, unmodified; also called H3K4me0; C-terminal fluorescently labeled H3 peptide) [5-carboxyfluorescein (5-FAM) conjugated H3 10mer peptide] |

Further lines, the binder ahead of its results:

| Binder | binding result (KDM5A_(1-797)) | Kd [1] | Kd [2] | Kd [3] | Kd [4] | Kd [5] | Kd [6] |
| --- | --- | --- | --- | --- | --- | --- | --- |
| ARTAQTARKS (peptide, UniProt P68431 2-11, looked up, histone H3 N-terminal tail, 10mer Ala1-Ser10 with K4A) [H3K4A 10mer peptide] | – | 2.11 ± 0.27 µM | 1.58 ± 0.19 µM | 22.2 ± 5.7 µM | – | – | – |
| ARTK(Me3)QTARKS (peptide, UniProt P68431 2-11, looked up, histone H3 N-terminal tail, 10mer Ala1-Ser10; also called tri-methylated H3K4 peptide) [H3K4me3 10mer peptide] | – | 35.5 ± 7.5 µM | 34 ± 5.5 µM | 511 ± 281 µM | – | – | – |
